Patent US20250188194A1, “Method of treatment” (Nucleus Therapeutics Pty Ltd, priority 2021, published 2025)
Where “and” joins values, the source holds several entries; their conditions need not be identical. Equal entries are not always repeated.

Legend:
[1] = test system: differentiated PLB-985 cells; experiment: Visualization of chromatin decondensation by DAPI stain after PMA stimulation; assay type: cell-based, human; settings: one hour pre-treatment with 10 μM DX1, 300 nM PMA two hours; control cells 67.5%; N=2
Experimental: FIGS. 2A-2D. DAPI and SYTOX™ Green stains support the conclusion that DX1inhibits chromatin decondensation and DNA release by differentiated PLB-985 cells stimulated with PMA. (2A) Chromatin decondensation in differentiated PLB-985 cells after stimulation with PMA±a one hour pre-treatment with 10 μM DX1 was visualized by DAPI stain. Left panel: Control cells with decondensed DAPI stain after PMA stimulation. Right panel: DX1-treated cells retaining condensed DAPI signal after PMA stimulation. Bar: 25 μm. (2B) Quantification of the percentage of differentiated PLB-985 cells with decondensed DAPI stain after PMA stimulation. […] (2C) DNA release by differentiated PLB-985 cells after stimulation with PMA±a one hour pre-treatment with 10 μM DX1 was visualized by addition of the impermeant DNA stain SYTOX™ Green. Representative images are shown. Bar: 25 μm. (2D) SYTOX™ Green signal in wells containing differentiated PLB-985 cells stimulated with PMA±a one hour pre-treatment with 10 […] was quantified by plate reader. […]
Differentiated PLB-985 cells were plated on Shi-fix coverslips in 12-well plates at 5×10^4 cells/well. […] Cells were fixed with ethanol followed by addition of DAPI and visualization of chromatin decondensation by fluorescence microscopy (EVOS FL, Thermo Fisher Scientific).

[2] = test system: differentiated PLB-985 cells; experiment: H3Cit western blot; assay type: cell-based, human; settings: 10 μM DX1 one hour, then PMA; PMA control 0.64±0.06; N=3
Experimental: FIGS. 5A-5B. […] Differentiated PLB-985 cells were pre-treated with control media or media containing 10 μM DX1 for one hour, followed by stimulation with PMA. Cellular contents were isolated and analyzed by H3Cit western blot. Representative cropped blot is shown in (5A), and quantification of H3Cit band intensity normalized to actin in (5B). […]
Histone citrullination by PAD4 is a key step in NETosis that is targeted by the selective PAD4 inhibitor GSK484. Differentiated PLB-985 cells treated with control or 10 μM DX1 for one hour were stimulated by PMA, and cell contents were isolated and analyzed for H3Cit content by western blot with normalization to actin. […]
Differentiated PLB-985 cells at 8×10^5 cells/well in 12-well plates were incubated with control buffer or buffer containing 10 μM DX1 for one hour and then stimulated by addition of 300 nM PMA for two hours. Cells were isolated by centrifugation, lysed in RIPA buffer, and H3Cit content determined by western blot using anti-H3Cit primary (#AB5103, abcam, Cambridge, MA, USA) and goat anti-rabbit HRP-conjugated secondary antibody at 1:5000 (#AB205718, abcam). H3Cit band intensities normalized to actin loading control were determined by ImageJ (NIH, Bethesda, MD).

B1: DX1: 3E10 derivative, a di-scFv having the sequence SEQ ID NO: 38; nuclear-penetrating anti-DNA binding protein (protein)
scFv: DIQMTQSPSSLSASLGDRATITCRASKTVSTSSYSYMHWYQQKPGQPPKLLIKYASYLESGVPSRFSGSGSGTDFTLTISSLQPEDAATYYCQHSREFPWTFGGGTKVEIKTVDAAPGGGGSGGGGSGGGGSEVQLVESGGGLVQPGGSLRLSCAASGFTFSNYGMHWVRQAPGKGLEWVSYISSGSSTIYYADSVKGRFTISRDNAKNSLYLQMNSLRAEDTAVYYCARRGLLLDYWGQGTTVTVSSASTKGPSVFPLAPLESTGSDIQMTQSPSSLSASLGDRATITCRASKTVSTSSYSYMHWYQQKPGQPPKLLIKYASYLESGVPSRFSGSGSGTDFTLTISSLQPEDAATYYCQHSREFPWTFGGGTKVEIKTVDAAPGGGGSGGGGSGGGGSEVQLVESGGGLVQPGGSLRLSCAASGFTFSNYGMHWVRQAPGKGLEWVSYISSGSSTIYYADSVKGRFTISRDNAKNSLYLQMNSLRAEDTAVYYCARRGLLLDYWGQGTTVTVSS
modifications: DX1 sequence
percentage of cells with decondensed DAPI stain after PMA stimulation [1]: 37.8±2.7% and 37.8±3.8% | intracellular H3Cit content normalized to actin, relative to unstimulated cells [2]: 1.46±0.20
